Reference: patent publication US20030144205A1 (published 2003)
Values belong to the binder of their own block, whether it stands above or below them.

B1: cyclin B1, full-length (other)
chain: MALRVTRNTKINAENKAKVSMAGAKRVPVTVTAASKPGLRPRTALGDIGNKVSEELQARVPLKREAKTLGTGKGTVKALPKPVEKVPVCEPEVELAEPEPEPELEHVREEKLSPEPILVDNPSPSPMETSGCAPAEEYLCQAFSDVILAVSDVDADDGADPNLCSEYVKDIYAYLRQLEEEQSVRPKYLQGREVTGNMRAILIDWLIQVQMKFRLLQETMYMTVSIIDRFMQNSCVPKKMLQLVGVTAMFIASKYEEMYPPEIGDFAFVTNNTYTKHQIRQMEMKILRVLNFSLGRPLPLHFLRRASKVGEVDVEQHTLAKYLMELSMLDYDMVHFAPSQIAAGAFCLALKILDNGEWTPTLQHYLSYSEDSLLPVMQHLAKNVVMVNCGLTKHMTVKNKYAASKHAKISTLAQLNCTLVQNLSKAVTKA
notes: 47 kDa; also called Ccnb1; CCNB1
B8: mouse RFPL4, full-length (amino acid residues 1-287) (other, UniProt Q8VH31 1-287, looked up)
chain: MAHLFKEKSNCYFCFRCLESPVYLNCGYICCLKCLDSLEKSPEGDGVLCPTCSVVSLKEDIIHAKQLGALVTKIKNLEPQLNFILTMDQGMKIFQVTMTLDVDTAQNHLIISDDLLSVYYTPQKQARKKCAERFHPSPCVLGSSRFTSGRHYWEVVVGTSKEWDIGICKESINRKKAIHLSEKNGFWTVGVRAKKVYSASTDPLTVLRVNPRLRRVGIFLDMLEKSVSFWDLSDGSHIYTFLEIPDTDPFRPFFSPASSYPDGDQEQVLSICPVTNPGIFGIPVNPQ
notes: One entry is used for all tagged forms; CHO cells: C-terminal FLAG (pCMV-Tag4A) or C-terminal MYC (pCMV-Tag5A); Western blot: endogenous protein in mouse tissue lysates; also called mRFPL4; pGBKT7-RFPL4

What was measured:
[1] = biological target: T1, HR6A (Ube2a), full-length (mouse, UniProt Q9Z255 1-152); test: anti-FLAG co-immunoprecipitation from lysates of cotransfected CHO cells (FLAG-tagged cyclin B1)
T1 construct: also called pGADT7-HR6A; MYC-tagged HR6A

[2] = biological target: B8; test: yeast two-hybrid mating screen of the ovary cDNA library with pGBKT7-RFPL4 as bait
[3] = biological target: B8; test: yeast two-hybrid cotransformation
[4] = biological target: Lysosomal-associated protein 4 (LAPTM4A) (mouse, UniProt Q60961 1-233); test: yeast two-hybrid cotransformation
[5] = biological target: T1, HR6A (Ube2a), full-length; test: yeast two-hybrid cotransformant growth/fluorescence assay
Description: (§1) Briefly, after inoculation, the initial fluorescence was checked and the cells were allowed to grow for 40 hr, and then the fluorescence of an oxygen sensitive dye using the [sequence] Biosensor kit (Clontech) was rechecked. Fluorescence was excited at 485 nm, and emission was read at 630 nm. To find the fold increase in fluorescence, an indication of yeast growth in selection media, the fluorescence intensity at time t=40 hr was divided by the initial intensity recorded at time t=0 hr (Fluorescence(t40)/Fluorescence(t0)). The values shown were the means of triplicate measurements of three independent transformants. Standard deviations were indicated by the error bars.

[6] = biological target: the molecule itself; test: as above
Description: as §1

cyclin B1, full-length = biological target: B1; test: co-immunoprecipitation of 35S-labelled proteins translated in vitro in reticulocyte lysate
Protocol: The pGBKT7 (MYC-Tagged) and pGADT7 (HA-Tagged) vectors were used as templates for in vitro transcription/translation using [³⁵S]Met and the TNT T7 Coupled Reticulocyte Lysate System (Promega, Madison, Wis.). In vitro translated proteins were combined at room temperature for 1 h, and reciprocal co-immunoprecipitation experiments were performed using mouse anti-MYC monoclonal or rabbit anti-HA polyclonal antibodies (Clontech).
Epitope tagged bait and prey proteins were transcribed by T7 polymerase from pGBKT7 and pGADT7 templates without DNA binding or transactivation domains. As positive control vectors, pGBKT7-murine p53 (MYC-epitope tagged) and pGADT7-SV40 large T (HA-epitope tagged) were used. ³⁵S-methionine was included in translation mixtures to generate products detectable by autoradiography.

T1 sequence (Q9Z255 whole entry): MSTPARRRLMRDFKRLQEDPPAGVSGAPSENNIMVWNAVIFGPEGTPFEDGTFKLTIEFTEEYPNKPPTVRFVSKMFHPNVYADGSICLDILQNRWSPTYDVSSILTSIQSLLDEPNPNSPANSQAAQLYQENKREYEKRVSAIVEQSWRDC

Binder: B1
binding result [1]: binds

B3: Cytochrome C oxidase subunit II (MT-CO2) (other, mouse, UniProt P00405 1-227, looked up)
chain: MAYPFQLGLQDATSPIMEELMNFHDHTLMIVFLISSLVLYIISLMLTTKLTHTSTMDAQEVETIWTILPAVILIMIALPSLRILYMMDEINNPVLTVKTMGHQWYWSYEYTDYEDLCFDSYMIPTNDLKPGELRLLEVDNRVVLPMELPIRMLISSEDVLHSWAVPSLGLKTDAIPGRLNQATVTSNRPGLFYGQCSEICGSNHSFMPIVLEMVPLKYFENWSASMI
notes: Prey from the ovary cDNA library (pGADT7)
# of clones [2]: 2 clones

B4: Solute carrier family 25, member 5 (SLC25A5) (other, mouse, UniProt P51881 1-298, looked up)
chain: MTDAAVSFAKDFLAGGVAAAISKTAVAPIERVKLLLQVQHASKQITADKQYKGIIDCVVRIPKEQGVLSFWRGNLANVIRYFPTQALNFAFKDKYKQIFLGGVDKRTQFWRYFAGNLASGGAAGATSLCFVYPLDFARTRLAADVGKAGAEREFKGLGDCLVKIYKSDGIKGLYQGFNVSVQGIIIYRAAYFGIYDTAKGMLPDPKNTHIFISWMIAQSVTAVAGLTSYPFDTVRRRMMMQSGRKGTDIMYTGTLDCWRKIARDEGSKAFFKGAWSNVLRGMGGAFVLVLYDEIKKYT
notes: as for B3
# of clones [2]: 1 clones

B6: Myosin light chain, alkali, non-muscle (MYLN) (other, mouse, UniProt Q60605 1-151, looked up)
chain: MCDFTEDQTAEFKEAFQLFDRTGDGKILYSQCGDVMRALGQNPTNAEVLKVLGNPKSDEMNVKVLDFEHFLPMLQTVAKNKDQGTYEDYVEGLRVFDKEGNGTVMGAEIRHVLVTLGEKMTEEEVEMLVAGHEDSNGCINYEAFVRHILSG
notes: Prey from the ovary cDNA library (pGADT7); Tags as for the other preys
# of clones [2]: 3 clones

Binder: B8
binding result [4]: no binding
binding result [5]: binds
binding result [6]: no binding
binding result (cyclin B1, full-length): binds

More lines, now with the values ahead:

# of clones [2]: 7 clones
B2: proteasome subunit β, type 1 (PSMB1) (other, mouse, UniProt O09061 1-240, looked up)
chain: MLSTAAYRDVERELGMGPHGSAGPVQLRFSPYAFNGGTVLAIAGEDFSIVASDTRLSEGFSIHTRDSPKCYKLTDKTVIGCSGFHGDCLTLTKIIEARLKMYKHSNNKAMTTGAIAAMLSTILYSRRFFPYYVYNIIGGLDEEGKGAVYSFDPVGSYQRDSFKAGGSASAMLQPLLDNQVGFKNMQNVEHVPLTLDRAMRLVKDVFISAAERDVYTGDALRICIVTKEGIREETVPLRKD
notes: In vitro: HA tagged; CHO cells: C-terminal MYC tag; 25 kDa; also called Proteasome beta type 1 subunit (PSMB1); pGADT7-PSMB1

binding result [3]: no binding
# of clones [2]: 1 clones
B5: ATP synthase, H+ transporting, mitochondrial F0 complex, subunit F (ATP5J) (other, mouse, UniProt P97450 1-108, looked up)
chain: MVLQRIFRLSSVLRSAVSVHLKRNIGVTAVAFNKELDPVQKLFVDKIREYKSKRQASGGPVDIGPEYQQDLDRELYKLKQMYGKGEMDTFPTFKFDDPKFEVIDKPQS
notes: as for B3

binding result [3]: no binding
# of clones [2]: 1 clones
B7: Microfibrillar-associated protein 2 (MFAP2) (other, mouse, UniProt P55002 17-183, looked up)
chain: QGQYDLDPLPPFPDHVQYNHYGDQIDNADYYDYQEVSPRTPEEQFQSQQQVQQEVIPAPTPEPAAAGDLETEPTEPGPLDCREEQYPCTRLYSIHKPCKQCLNEVCFYSLRRVYVVNKEICVRTVCAHEELLRADLCRDKFSKCGVMAVSGLCQSVAASCARSCGGC
notes: as for B3
